The text below walks through data of patent US10407511B2, “Covalently linked helicar-anti-helicar antibody conjugates and uses thereof” (Hoffmann-La Roche Inc., priority 2014, dated 2019).

Numbered stars: 1 amine (or outer) side, 2 acyl side, 3 side chain; on linkers, the order of the positions; unused ones are H or OH. Square brackets hold non-standard residues; d marks the D form. Ends that are not written are not given here. Pqa = 4-oxo-6-(1-piperazinyl)-3(4H)-quinazoline-acetic acid, O=C(Cn1cnc2ccc(N3CCN([*:1])CC3)cc2c1=O)[*:2]; NMeR = CN[C@@H](CCCNC(=N)N)C(=O)O

The target in data set [1] is anti-helicar motif amino acid sequence antibody. Nature of the data set: binding [Kd] of PYY peptides by anti-helicar antibody. Particulars: PYY peptide bound by anti-helicar antibody.
The target in data set [2] is T1, NPY2R (Homo sapiens, UniProt P49146).
T1 sequence (P49146 1-381): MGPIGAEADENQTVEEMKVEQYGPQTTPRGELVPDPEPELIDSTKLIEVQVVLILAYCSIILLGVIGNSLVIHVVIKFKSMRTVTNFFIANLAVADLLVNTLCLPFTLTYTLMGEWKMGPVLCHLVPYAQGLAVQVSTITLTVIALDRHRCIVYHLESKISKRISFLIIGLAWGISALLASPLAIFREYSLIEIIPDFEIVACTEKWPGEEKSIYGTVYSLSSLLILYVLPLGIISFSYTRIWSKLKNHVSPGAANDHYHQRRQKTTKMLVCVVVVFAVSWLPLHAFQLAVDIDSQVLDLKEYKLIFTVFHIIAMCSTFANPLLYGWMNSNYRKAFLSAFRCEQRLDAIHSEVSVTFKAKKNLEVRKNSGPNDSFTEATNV
In words: effect on Y2Receptor family: NPY2R. It counts as cell-based.

Data set [3] addresses NPY4R (Homo sapiens, UniProt P50391). In words: effect on Y2Receptor family: NPY4R. The format is cell-based.
The target of data set [4] is T2, NPY5R (Homo sapiens, UniProt Q15761).
T2 sequence (Q15761 1-445): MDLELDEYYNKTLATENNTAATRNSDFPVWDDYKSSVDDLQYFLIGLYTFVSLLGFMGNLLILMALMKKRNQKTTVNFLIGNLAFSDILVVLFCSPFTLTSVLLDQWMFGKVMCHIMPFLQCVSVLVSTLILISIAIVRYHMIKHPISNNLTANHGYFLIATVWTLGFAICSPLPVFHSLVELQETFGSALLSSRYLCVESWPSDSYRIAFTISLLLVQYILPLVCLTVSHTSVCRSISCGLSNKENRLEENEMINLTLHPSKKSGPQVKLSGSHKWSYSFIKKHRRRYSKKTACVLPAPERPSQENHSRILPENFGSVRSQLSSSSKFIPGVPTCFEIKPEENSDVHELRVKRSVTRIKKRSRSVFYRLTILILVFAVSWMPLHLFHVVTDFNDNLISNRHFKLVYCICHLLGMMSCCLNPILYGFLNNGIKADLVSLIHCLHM
Nature of the data set: effect on Y2Receptor family: NPY5R. The format is cell-based.

Data set [5] addresses T3, NPY1R (Homo sapiens, UniProt P25929).
T3 sequence (P25929 1-384): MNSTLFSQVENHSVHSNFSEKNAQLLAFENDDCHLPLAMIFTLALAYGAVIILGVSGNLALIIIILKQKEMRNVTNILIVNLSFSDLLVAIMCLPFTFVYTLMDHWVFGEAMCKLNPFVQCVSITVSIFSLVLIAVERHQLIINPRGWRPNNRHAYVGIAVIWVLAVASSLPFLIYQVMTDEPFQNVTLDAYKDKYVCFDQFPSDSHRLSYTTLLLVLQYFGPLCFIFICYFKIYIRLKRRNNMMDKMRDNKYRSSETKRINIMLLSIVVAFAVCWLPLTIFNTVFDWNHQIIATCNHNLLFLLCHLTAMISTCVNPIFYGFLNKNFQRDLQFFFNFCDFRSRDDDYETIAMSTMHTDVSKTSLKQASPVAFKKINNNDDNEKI
Nature of the data set: effect on Y2Receptor family: NPY1R. The format is cell-based.

Data set [6] can be described thus: Dig-peptide serum kinetic (Western blot of digoxigenylated PYY in serum). It counts as in vivo, mice (strain NRMI). As for the experimental part: Serum samples were stored at −80° C.
The determination of the amount of digoxigenylated peptide in the serum at the given time points was difficult compared to the detection of Dig-Cy5 as no direct means to detect the polypeptide in serum samples was available. Therefore, a Western-Blot related assay to detect digoxigenylated peptide in serum was established. In a first step, the serum samples were separated on reducing SDS-PAGE. Because sample preparation included exposure of the serum to high concentrations of SDS and reducing agents, complexed Dig-polypeptide conjugates can become released from the (completely denatured/unfolded) anti-digoxigenin antibody, whereas covalently conjugates remained bound. To mediate the release of the polypeptide from the non-covalent antibody complex and separate the individual components by SDS-PAGE, 2 μl of each serum sample was diluted in 18 μl 20 mM histidine/140 mM NaCl pH 6.0, mixed with 6.7 μl of 4×LDS sample buffer and 3 μl of 10× sample reducing agent (NuPAGE, Invitrogen) for 5 min at 95° C. As a control, 2 μl of serum of an untreated mouse of the same strain was used. Samples were applied to a 4-12% Bis-Tris Gel (NuPAGE, Invitrogen) which was run at 200 V/120 mA for 20 minutes using 1×MES (Invitrogen) as a running buffer. Subsequently, separated polypeptides were blotted onto a PVDF membrane (0.22 μm pore size, Invitrogen) using the XCell Sure Lock® Mini-Cell system (Invitrogen) for 40 min at 25 V/130 mA. Membranes were blocked in 1% skim milk in 1×PBS+1% Tween20 (PBST) for 1 h at RT. Digoxigenylated polypeptides were subsequently detected on the membrane with an anti-digoxigenin antibody. For that, anti-digoxigenin antibody was applied to the membranes in a concentration of 13 μg/ml in 10 ml of 1% skim milk/PBST for 2 h at RT. Membranes were washed for 3×5 min in 1×PBST. Anti-mouse IgG Fab-fragments coupled to POD from the LumiLight^PLUS Western Blotting Kit (Roche) was applied in a 1:25 dilution in 10 ml of 1% skim milk/PBST for 1 h at RT. […] Chemiluminescence was detected with the LumiImager F1 (Roche) with an exposure time of 20 min.

NPY4R, sequence (P50391 whole entry, species assumed): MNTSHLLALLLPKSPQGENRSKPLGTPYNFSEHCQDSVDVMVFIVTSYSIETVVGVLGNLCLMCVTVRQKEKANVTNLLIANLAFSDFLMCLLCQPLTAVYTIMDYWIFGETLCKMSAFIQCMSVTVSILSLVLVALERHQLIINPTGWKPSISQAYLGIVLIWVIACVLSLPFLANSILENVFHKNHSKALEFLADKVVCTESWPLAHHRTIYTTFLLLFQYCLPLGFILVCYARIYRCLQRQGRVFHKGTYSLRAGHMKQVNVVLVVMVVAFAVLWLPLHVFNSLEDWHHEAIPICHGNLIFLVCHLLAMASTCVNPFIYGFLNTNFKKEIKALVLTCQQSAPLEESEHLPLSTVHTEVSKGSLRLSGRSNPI

By Kd is commonly meant the concentration at which binding is half-saturated. Low readings indicate tighter binding, high ones weaker binding. In turn, “IKPEAPGEDASPEAHLANEVARLHYLNLVTRQRY-NH2 [PYY_helicar]” displayed a Kd in data set [1] of 12 nM. For the same substance, the NPY2R in data set [2] is 6.38 nM. Besides, the NPY4R result in data set [3] was “inactive”. Besides, in data set [4], the NPY5R result is “inactive”.
Consider “Ac-Ile-Lys-Pqa-Arg-His-Tyr-Leu-Asn-Trp-Val-Thr-Arg-Gln-(NMe)-Arg-Try-NH2 * 4 HOAc (Ac-IK[Pqa]RHYLNWVTRQ[NMeR]Y-NH2; also: 4 HOAc salt) [reference compound]”, for which, in data set [2], the NPY2R turned out to be 1.0 nM. Also, the NPY1R result in data set [5] was “inactive”. Further, in data set [3], the NPY4R result was “inactive”. For the same substance, the NPY5R entry in data set [4] is “inactive”.
Regarding “DIG-PYY: digoxigenylated PYY polypeptide”, the “digoxigenylated polypeptide signal in serum” value in data set [6] (5 min after administration) is “only in trace amounts”; in data set [6] (later time points up to 24 hrs.) it was “no defined polypeptide band was detectable”. Besides, the “half-life in the serum” value in data set [6] (mouse, in vivo) is recorded as “very short half-life”.
